{
  "source": "a protein production outcome set (Wang et al. 2014)",
  "data": [
    {"assay": "label from the status in PepcDB records", "values": [
      {"sequence": "MQYINIANRGVKSLSPYQAGKPIEELERELGISNIVKLASNENPFGFPESAKKAIFEQLDKLTRYPDANGFELKQTIAKKFGVQPNQITLGNGSNDLLELFAHTFATEGDEIMYSQYAFIVYPLVTKAINAIVKEIPAKNWGHDLQGFLTALSDKTKLIYIANPNNPTGNFLTSQEIEDFLAEVPENVIVVLDEAYTEFTRSEERVDSFSLLKKYSNLIISRSLSKAYGLAGLRIGYAVSNPEIADLLNRVRQPFNCNSLALTAAVAVMNDDKFVEKVAENNRIEMRRYEDFCQKNQLDYIPSKGNFITIDFKQPAAPIYDALLREGVIVRPIAGYGMPNHLRISIGLPEENDKFFTALSKVLKFA", "protein production": "not failed"},
      {"sequence": "MQYRIRRENEAPEAKNAGETLWERDIMREVLLSAYRDRRRERMWKNIWRAVSTLILVALIAGIFRKDEAALQLAGNTPHTAVVNLYGKIGNGVEDQVKKLKDGMEAAYKNPQAKAIVIRANSPGGSPVVSNTAFEEIRRLKAQHPGIPVYLVAEDMCASGCYYIAAAADKIYADPSSIVGSIGVIGSSFDATGLMEKIGVKRRVKIAGSNKGMGDPFSPETPEQSKIWEEMLTGIHGEFIKAVKTGRGGRLKFRQYPDVFSGRVYTGADALKVGLVDGLGNIYSVARDVVKAPDVVDYTPKDDFGRILGRRFGAELKASVSEALQAVRLEHHHHHH", "protein production": "not failed"},
      {"sequence": "MRAAFLIGILAAMGALTQGGSISETVGAGLIDGATITSLAAVAGLLTATGFMAFGIYSGYPVPAAFATTGAMVGVGLSLGGQPVFDTYRRIATFWLLVPPVSGSLAYLTATVLRRDDIPETVGVPLLAGVVGGIVANVQLSIIPSPAGTDQGSLAGFAAMVAGTDIAAVATTLLVAAGSFYYIRRQTQASVDKGIKTFLVVLGSVVAFSSGGSQVGLATGPLENLYRAELGLPGFVLLALGAVGILGGAWMGAPRLLQATSREYAQLGVRRSIAALVPGFIIAQAAIALGIPISFNNIIISGVIGGGLAGGSAGVSRRKIGVTVGFWLITLVTSVVIGFGVYQVLEAALGSQV", "protein production": "failed"},
      {"sequence": "MRAMRLVEIGKPLKLEDIPIPKPKGSQVLIKIEAAGVCHSDVHMRQGRFGNLRIVEDLGVKLPVTLGHEIAGRIEEVGDEVVGYSKGDLVAVNPWEGEGNCYYCRIGEEHLCDSPRWLGINYDGAYAEYVLVPHYKYLYKLRRLSAVEAAPLTCSGVTTYRAVRKASLDPSKTLVVIGAGGGLGTMAIQIAKAVSGATIIGVDVREEALEAAKRAGADYVINASSQDPVSEIRRITQGKGADAVIDLNNSEKTLSIYPYVLAKQGKYVMVGLFGADLKYHAPLITLNEVQFIGSLVGNQSDFLGIMSLAEAGKVKPMVTKTMKLEEANEAIDNLENFKAVGRQVLVP", "protein production": "not failed"},
      {"sequence": "MRARRRVMAKREALRAGSKASRQATPNSQPELEGKLFAEQDAGERTHEKLVFVPRVDIYETETGLVVVADLPGVGPEGLEVTLEKRVLSIYGRVKEDTPEGYSQAYREYEVGDFERQFTLSGDFEINGIEANIKDGVLHLAIPRAPEAAAKRIEVRSVS", "protein production": "failed"},
      {"sequence": "MRAVIQRVKKSWVEVDGKVVGSINEGLNVFLGVRKGDTEEDIEKLVNKILNLRIFEDERGKFQYSVLDIKGEILVVSQFTLYANVKKGRRPSFEEAEEPKRAKELYEKFVDKIKESGLKVETGIFGAMMDVFIENWGPVTIIIDSREI", "protein production": "not failed"}
    ]}
  ]
}
